Measured values published in article PMC11570472, “Activity and phosphatidylcholine transfer protein interactions of skeletal muscle thioesterase Them2 enable hepatic steatosis and insulin resistance” (The Journal of Biological Chemistry, 2024).
Numbering of substitutions follows the chain as printed. In names and notes the source's numbering stands.

B1: His-tagged WT mouse Thioesterase superfamily member 2 (Them2), purified recombinant (enzyme, UniProt Q9CQR4 1-140, looked up)
chain: MSSMTQNLREVMKVMFKVPGFDRVLEKVTLVSAAPEKLICEMKVEEQHTNKLGTLHGGLTATLVDSISTMALMCTERGAPGVSVDMNITYMSPAKIGEEIVITAHILKQGKTLAFASVDLTNKTTGKLIAQGRHTKHLGN
notes: also called WT Them2; acyl-CoA thioesterase 13
B2: His-tagged N50A/D65A mouse Them2, purified recombinant (enzyme, UniProt Q9CQR4 1-140, looked up)
chain: B1 chain with N50A, D65A
notes: also called N50A/D65A Them2

Target: the molecule itself
Assay: SEC; purified recombinant protein (100 uM) on an analytical Superdex 75 10/300 column, 0.5 ml/min, UV absorbance at 280 nm

Protein	stoichiometry N
B1	4
B2	4
